Results on two substances are retold here after patent publication US20240398911A1.

Experiment [1] has as its target myc-tagged full-length S of SARS-CoV-2 variant B.1.351 (Beta) expressed on Expi293F cells (SARS-CoV-2 B.1.351 (Beta)).
The target in experiment [2] is myc-tagged full-length S of SARS-CoV-2 variant P.1 (Gamma) expressed on Expi293F cells (SARS-CoV-2 P.1 (Gamma)).
The target in experiment [3] is myc-tagged full-length S of SARS-CoV-2 variant B.1.1.7 (Alpha) expressed on Expi293F cells (SARS-CoV-2 B.1.1.7 (Alpha)).

With REGN10987 (imdevimab) (antibody), the EC50 (read off the curve) – broadly, the concentration needed to bring the measured effect to its halfway point – in experiment [1] was determined as 0.3 nM; in experiment [2], 0.2 nM.
Turning to “sACE22.v2.4 fused to human IgG1 Fc (Fc fusion)”, the values for the EC50 (read off the curve) in experiment [2] and in experiment [3] were 0.8 nM and 0.7 nM, respectively.
